Assay results published in PMC9175631 (Journal of Virology, 2022).

Experiments:
[1] = target: ZIKV prM/E (ZIKV SPH2015), E E162A (Zika virus (ZIKV SPH2015)); assay: flow cytometry on cells
[2] = target: ZIKV prM/E (ZIKV SPH2015), E G100A (Zika virus (ZIKV SPH2015)); assay: flow cytometry on cells
[3] = target: ZIKV prM/E (ZIKV SPH2015), E G182A (Zika virus (ZIKV SPH2015)); assay: flow cytometry on cells
[4] = target: ZIKV prM/E (ZIKV SPH2015), prM G59A (Zika virus (ZIKV SPH2015)); assay: flow cytometry on cells
[5] = target: T1, wild-type ZIKV prM/E (ZIKV SPH2015) (Zika virus, SPH2015, UniProt A0A0U3FSM8, strain); assay: flow cytometry on cells; conditions: one partner purified
T1 construct: also called WT prM/E; wild-type prM/E; source: HEK-293T, transfected, cells fixed and permeabilised

[6] = target: T2, ZIKV prM protein of heat-denatured ZIKV-VLP (Western band) (Zika virus, Suriname Z1106033, UniProt A0A0U4DG08, strain); assay: Western blot (Wes capillary electrophoresis); 27 or 240 ng ZIKV-VLP denatured at 70°C for 5 min without reducing agent, electrophoresed, probed with 10 μg/mL MAb; conditions: both partners purified
T2 construct: subunit of m13; also called precursor membrane protein

B1: anti-ZIKV MAb 278-11 (antibody, V domains shown)
VH: QSLEESGGGLVQPEGSLTLACTASEFDSSSNAMCWVRQAPGKGLEWIARIYSGSGTIYYANWARGRFTISKTSSTTVTLQMTSLTDADTATYFCARYNTGGFYYDLWGPGTLVTVSS
VL: ALVMTQTPASVEAAVGGTVTINCQASQRIGTNLAWYQQKPGQPPKVLIYKASTLASGVSSRFIGSGSGTDYTLTISGVECDDAATYYCQQGYSSNDADNTFGGGTEVVVK
notes: recombinant rabbit IgG; source: 293-6E cells, cotransfected, purified (MabSelect SuRe protein A)
[1]
  antibody binding reactivity (% WT): 77.8 % WT
[2]
  antibody binding reactivity (% WT): 95.1 % WT
[3]
  antibody binding reactivity (% WT): 85.9 % WT
[4]
  antibody binding reactivity (% WT): 28.5 % WT
[5]
  binding result: binds
[6]
  binding result: binds
